Data set [1] concerns the molecule itself. As to the kind of experiment: SEC; Superose-6 HR 10/30, buffer B (50 mM Tris pH 8.0, 100 mM NaCl), 0.3 ml/min, approximately 150 ug protein injected; mass from a plot of Ve/Vo versus log of molecular mass of standards.
Data set [2] relates to H. pylori strain 26695. As to the kind of experiment: Recombination assay (incorporation of streptomycin resistant chromosomal DNA). Type of data set: cell-based, Helicobacter pylori. Particulars: for fold higher recombination / transformation frequency than the wild-type strain: HpMutS2-E413A over-expressed in the wild-type strain. Here is the method: The construction of hpmutS2-disrupted strain, complements, and calculations of recombination frequencies were performed as described in [7]. Briefly, H. pylori strain 26695 was used to disrupt hpmutS2 gene by allelic replacement using a chloramphenicol resistance cassette and to generate integrations. The wild-type and mutants of HpMutS2 preceded by ureA promoter and containing an apramycin resistance cassette were integrated into a non-essential ureA locus. The correct constructions were verified by PCR and the expression of proteins was monitored by Western blots. Recombination frequencies were determined by rate of incorporation of streptomycin resistant isogenic total chromosomal DNA (200 ng) per cfu. P values were calculated using the Mann–Whitney U test. At least two independent clones of each construction were used to determine the recombination frequencies. All DNA constructs were introduced using natural transformation. H. pylori was grown on BAB plates at 37 °C under microaerophillic conditions.

A short description of data set [3]: ATPase assay of HpMutS2 and mutants (TLC, ATP [γ-32P] tracer). Type of data set: biochemical. Particulars: for kcat value, fold reduced compared to the wild-type protein / V max / k cat: ATP hydrolysis; for V max / k cat: Mg2+ 5 mM, 37 °C, Michaelis-Menten analysis; for Km value, fold higher compared to the wild-type protein: for ATP; for effect of DNA on ATPase activity: 1 μM. The text has this:
Fig. 1 a Schematic representation of HpMutS2 variants used in this study. Walker-A and Walker-B motifs of HpMutS2 were identified by multiple sequence alignment of MutS2 proteins from different bacteria using Clustal Omega (http://www.ebi.ac.uk/Tools/msa/clustalo/). The mutations in the walker-A and Walker-B motifs were introduced using site directed mutagenesis. The mutated amino acids are highlighted in red. All the proteins were C-terminally His6-tagged. The LDLK motif and Smr domain are conserved nuclease sites of HpMutS2. b Effect of DNA substrates on ATPase activity of HpMutS2. HpMutS2 (45 nM) was incubated with increasing concentrations of ATP [0, 10, 20, 40, 60, 80, 100, 200, 400, 600, 800, and 1000 (μM)]. DNA substrates (1 μM) were added separately to the reaction mixtures. After incubation at 37 °C for 30 min the reactions were stopped by EDTA (50 mM) and the products were separated by TLC. ATP [γ-^32P] was used as tracer to monitor the product formation. Reaction velocities were calculated by quantifying the proportion of products formed to un-reacted substrate divided by incubation time TEXT PRINTED IN THE PICTURE: (A) HpMutS2 (1-762): Mol. wt. (kDa): 87.8 | (A) HpMutS2-G338R (1-762): Mol. wt. (kDa): 87.9 | (A) HpMutS2-E413A (1-762): Mol. wt. (kDa): 87.7 | (A) HpMutS2ΔSmr (1-683): Mol. wt. (kDa): 79.3 | (A) HpMutS2ΔSmr-D30A (1-683): Mol. wt. (kDa): 79.2 | (A) HpSmr (684-762): Mol. wt. (kDa): 9.6
To delineate the characteristics of the ATPase activity of HpMutS2, we initially determined the metal ion requirement for ATP hydrolysis by HpMutS2. Purified HpMutS2 was incubated with excess of cold ATP (100 μM) with or without metal ions (5 mM each), and ATP hydrolysis monitored by thin layer chromatography using radiolabeled ATP [γ-^32P] as tracer. […] Based on the above observations, all subsequent ATPase assays were performed in presence of Mg^2+ (5 mM) at 37 °C using the protein concentrations in the linear range of enzymatic activity for 30 min or below.
ATPase activity of HpMutS2 and mutants was carried out in 10 μl of reaction volume containing 1X buffer A (50 mM Tris pH 8.0, 50 mM NaCl, and 1 mM DTT) containing MgCl2 (5 mM), and ATP [γ-^32P] was used as a tracer. A 1:1000 dilution of 25 μC ATP [γ-^32P] (3500 Ci/mmol) was used with indicated amount of the cold ATP in all the assays. All reactions were carried out at 37 °C for indicated time and terminated by the addition of EDTA (50 mM). 1 μl aliquot of each reaction mixture was spotted on a polyethylene cellulose TLC sheets. The reaction components [ATP and inorganic phosphate (Pi)] were separated by thin layer chromatography (TLC) using 0.4 M […] and 0.1 mM EDTA as mobile phase. The dried TLC sheets were visualized by phosphorimaging and quantified using Image Gauge (Version 3.0). The kinetic parameters were determined using the Michaelis–Menten equation by non-linear regression of plot of rate of product formation versus substrate concentration using GraphPad Prism 5 software. Reaction velocities were calculated by quantifying the proportion of products formed to un-reacted substrate divided by incubation time. To determine the effect of DNA on ATPase activity 1 μM of DNA substrates were added separately to the reaction mixture.

A short description of data set [4]: Far-UV circular dichroism spectroscopy. Particulars: protein 1 μM, far-UV CD 200–300 nm. Type of data set: physicochemical. Here is the method: Fig. 3 Mutation induced conformational changes in HpMutS2. a CD-spectroscopy of HpMutS2, HpMutS2-G338R, and HpMutS2-E413A. Far-UV CD spectra of proteins (1 μM) dialyzed in 50 mM Tris-Cl and 100 mM NaCl were recorded between 200–300 nm with 20 mdeg sensitivity at a scan speed of 50 nm using 2 mm path length cuvette with a bandwidth of 2 nm. The spectra were recorded using Jasco-815 spectropolarimeter. Size exclusion chromatographic analysis of b HpMutS2, c HpMutS2-G338R, and d HpMutS2-E413A was performed using Superose-6 gel filtration column at a constant flow rate of 0.3 ml/min. Approximately 150 μg of all the proteins were spun at 10,000 rpm for 10 min at 4 °C before injection. The absorbance was recorded at 280 nm
Freshly prepared proteins were dialyzed twice in buffer B for 4–6 h with at least two changes of the buffer. Far-UV CD spectra of proteins (1 μM) were obtained using a Jasco-815 spectropolarimeter equipped with a Peltier stage (Japan Spectroscopic Co., Japan) at 25 °C. The spectra were recorded between 200–300 nm with 20 mdeg sensitivity at a scan speed of 50 nm using 2 mm path length cuvette with a bandwidth of 2 nm. […] Thermal denaturation of the proteins was monitored at single wavelength (222 nm) by increasing temperature from 25 °C-80 °C. The percentage of unfolded protein was calculated by considering the protein at 25 °C as 100 % folded.

[5] abbreviates: comparison with literature value.

Numbering of substitutions follows the chain as printed. Names and notes keep the numbering of the source.

B1: HpMutS2-E413A (enzyme)
chain: MSDAPKRSLNPTLMMNNNNTPPKPLEESLDLKEFIALFKTFFAKERDTIALENDLKQTFTYLNEVDAIGLPTPKSVKESDLIIIKLTKLGTLHLDEIFEIVKRLHYIVVLQNAFKTFTHLKFHERLNAIVLPPFFNDLIALFDDEGKIKQGANATLDALNESLNRLKKESVKIIHHYARSKELAPYLVDTQSHLKHGYECLLLKSGFSGAIKGVVLERSANGYFYLLPESAQKIAQKIAQIGNEIDCCIVEMCQTLSHSLQKHLLFLKFLFKEFDFLDSLQARLNFAKAYNLEFVMPSFTQKKMILENFSHPILKEPKPLNLKFEKSMLAVTGVNAGGKTMLLKSLLSAAFLSKHLIPMKINAHHSIIPYFKEIHAIINDPQNSANNISTFAGRMKQFSALLSKENMLLGVDAIELGTDADEASSLYKTLLEKLLKQNNQIIITTHHKRLSVLMAENKEVELLAALYDEEKERPTYTFLKGVIGKSYAFETALRYGVPHFLIEKAKTFYGEDKEKLNVLIENSSALERELKQKNEHLENALKEQEYLKNAWLLEMEKQKEIFHNKKLELEKSYQQALNILKSEVASKDTSSMHKEIHKASEILSKHKTNQEIPQIITNFQANEKARYKNESVLIVQILDKGYYWIETELGMRLKAHGSLLKKIQKPPKNKFKPPKTTIPKPKEASLRLDLRGQRSEEALDLLDAFLNDALLGGFEEVLICHGKGSGILEKFVKEFLKNHPKVVSFSDAPINLGGSGVKIVKL
notes: also called Walker-B mutant
For the molecule B1, in data set [1], the binding result was “binds”. Further, the “fold higher recombination / transformation frequency than the wild-type strain” value in data set [2] is ~ 5 fold. Further, in data set [3], the “kcat value, fold reduced compared to the wild-type protein” value is on record as ~ 10 fold; the V max came to 0.19 ± 0.03 µM/min; the k cat turned out to be 0.0703 ± 0.011 s⁻¹; the “Km value, fold higher compared to the wild-type protein” value is given as “comparable”. Also, the “reduced negative ellipticity compared to the wild-type protein” value in data set [4] is given as 30–34%.

B2: HpMutS2-G338R (protein)
chain: B1 chain with G338R, A413E
For the molecule B2, in data set [3], the “kcat value, fold reduced compared to the wild-type protein” value was ~ 3 fold; the V max worked out at 0.64 ± 0.15 µM/min; the k cat amounted to 0.237 ± 0.0555 s⁻¹; the “Km value, fold higher compared to the wild-type protein” value is on record as ~ 2.3 fold. Besides, the “reduced negative ellipticity compared to the wild-type protein” value in data set [4] was “no significant changes”.

B3: HpMutS2: Helicobacter pylori MutS2 (1-762), C-terminally His6-tagged wild-type protein, nuclease and ABC ATPase (protein)
chain: B1 chain with A413E
modifications: left off: His6, C-terminal, state not stated
notes: Helicobacter pylori MutS2 (1-762), C-terminally His6-tagged wild-type protein, nuclease and ABC ATPase
For the molecule B3, the “fold higher recombination / transformation frequency than the wild-type strain” value in data set [2] was ~ 8 fold. Further, the “Relative value (recombinant frequency relative to Wt)” value in data set [2] (Wt = 1) is given as 7.9. In data set [2] (streptomycin resistance colonies per recipient cfu, average (±standard deviation)), the Recombinant frequency was 39.2 (±29.2) x10^−4. Moreover, the “effect of DNA on ATPase activity” value in data set [3] (3′- or 5′-overhangs) is “negligible increases”. Further, in data set [3], the V max is 1.88 ± 0.13 µM/min and the k cat was 0.6962 ± 0.048 s⁻¹. For the same molecule, in data set [3] (setting [5]), the “Km value, fold higher compared to T. thermophilus MutS1” value is recorded as ~ 8 fold; the “Km value, fold higher compared to Thermus thermophilus MutS2 (TtMutS2)” value is listed as ~ 9 fold; the “kcat value, fold higher compared to T. thermophilus MutS1” value was ~ 4.5 fold; the “kcat value, fold higher compared to Thermus thermophilus MutS2 (TtMutS2)” value is listed as ~ 20 fold. For the same molecule, the “effect of DNA on ATPase activity” value in data set [3] (linear DNA substrates ssDNA, dsDNA) is given as “no effect”.

The values are drawn from paper PMC4739419, “Mutations in the nucleotide binding and hydrolysis domains of Helicobacter pylori MutS2 lead to altered biochemical activities and inactivation of its in vivo function” (BMC Microbiology, 2016).
